Experimental data: WO2008118324A2 (dated 2008)

Experiments:
[1] = target: T1, human UPK-Ib expressed on the surface of cells (human, UniProt O75841 1-260); assay: flow cytometry, antibody at 2 ug/mL on A549 and EKVX cells
T1 construct: whole, on cells; also called uroplakin Ib; UPK-1
T1 sequence (looked up): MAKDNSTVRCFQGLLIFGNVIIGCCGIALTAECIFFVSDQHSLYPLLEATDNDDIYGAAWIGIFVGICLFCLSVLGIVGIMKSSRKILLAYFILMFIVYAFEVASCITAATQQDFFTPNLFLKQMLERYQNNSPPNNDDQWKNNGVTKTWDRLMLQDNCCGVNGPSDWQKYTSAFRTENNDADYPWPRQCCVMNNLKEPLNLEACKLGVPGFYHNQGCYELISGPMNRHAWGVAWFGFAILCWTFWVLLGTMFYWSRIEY

[2] = target: T1, human UPK-Ib expressed on the surface …; assay: flow cytometry on a transitional cell carcinoma line

B1: chimeric 1G9 containing the enhancing Fc mutant (antibody, V domains shown)
VH: QVQLQQPGAELVRPGSSVKVSCKASGYTFSSYWMHWVKQRPIQGLEWIGNIDPSDSETHYNQKFKDKATLTVDKSSSTAYMQLSSLTSEDSAVYYCARSGAGTGPWLAYWGQGTLVTVSA
VL: DIVMTQSPSSLTVTAGEKVTMTCKSSQSLLNSGNQKNYLTWYQQKPGQPPNPLIYWASTRESGVPDRFTGSGSGTDFTLTISSVQAEDLAVYYCQNDYSYPFTFGSGTKLEIKR
notes: domain: C-kappa segment; They are not tied to this construct; also called chlG9-mut; chlG9 Fc mut; not shown: human IgG1 constant region carrying the 'enhancing Fc mutant'
binding result [1]: binds

B2: 1G9 monoclonal antibody (murine) (antibody, V domains shown)
VH: QVQLQQPGAELVRPGSSVKVSCKASGYTFSSYWMHWVKQRPIQGLEWIGNIDPSDSETHYNQKFKDKATLTVDKSSSTAYMQLSSLTSEDSAVYYCARSGAGTGPWLAYWGQGTLVTVSA
VL: DIVMTQSPSSLTVTAGEKVTMTCKSSQSLLNSGNQKNYLTWYQQKPGQPPNPLIYWASTRESGVPDRFTGSGSGTDFTLTISSVQAEDLAVYYCQNDYSYPFTFGSGTKLEIK
notes: Mouse (BALB/c) hybridoma antibody, tested as culture supernatant and detected with anti-mouse IgG; also called 1G9 MAb
binding result [2]: binds

B3: 5H9 monoclonal antibody (murine) (antibody, V domains shown)
VH: EVQLVESGGGLVQPKGSLKLSCAASGFSFNTYAMNWVRQAPGKGLEWVARIRSKSNNYATYYADSVKDRFTISRDDSESMLYLQMNNLKTEDTAMYYCVRQGDGYYVGWFAYWGQGTLVTVSA
VL: DIQMTQTTSSLSASLGDRVTISCRASQDISNYLNWYQQKPDGTVKLLIYYTSRLHSGVPSRFSGSGSGTDYSLTISNLEQEDIATYFCQQGNTLPFTFGSGTKLEIK
notes: Mouse (BALB/c) hybridoma antibody, tested as culture supernatant and detected with anti-mouse IgG; also called 5H9 MAb; murine 5H9
binding result [2]: binds
